Data taken from the nanobody polyreactivity screen of Harvey et al. (2022).

Assay: yeast display, Sf9 membrane polyspecificity reagent, FACS + sequencing; frameworks hold sequencing errors
Method in brief: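 A nanobody's polyreactivity label depends on the gate it was sorted from. Yeast display cells were stained with 10% biotinylated, detergent-solubilized Sf9 membrane reagent for 1 hour at 4 °C, enriched on streptavidin microbeads and sorted by FACS. The low and high (top ~1%) gates were set on anti-HA fluorescence for expression and streptavidin fluorescence for reagent binding.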
With “QVQLVESGGGLVQAGGRLRLSCAGSGSTSYGYAMGWYRQAPGKERELVAAITSGGRTYYADSVKGRFTISRDNAKNTVYFQMNSLKPEDTAVYYCAAVRALRKVRDYYYWGQGTQVTVSS” the “polyreactivity (PSR sort gate)” value was “high polyreactivity”. For “QVQLVESGGGLVQAGGRLRLSCAPSGSTFTANDMGWYRQAPVKERELVAAISISGTRTYYADSVKGRFTISRDNAKNTVYLQMNSLKPEDTAVYYGNKATSYFTVRGYDYWGQGTQVTVSS”, the “polyreactivity (PSR sort gate)” value was “high polyreactivity”. For “QVQLVESGGGLVQAGGRLRLSCEASGNIFGYYAMGWSRQAPGKERELVAAITRSGSSTYYADSVKGRFTISRDNAKNNVFLQMNSLKPEDTAVYYCSADNFYQAYGYWGQGTQVTVSS”, the “polyreactivity (PSR sort gate)” value was “low polyreactivity”. For “QVQLVESGGGLVQAGGRLRLSSAASGFTFNKYGMGWYRQAPRKERELVAAISGSGGSTRYADSVKGRFTISRDNAKNTVYLLMNSLKPEDTAVYFCAKRSQTRYYYWGQGTQVTVSS”, the “polyreactivity (PSR sort gate)” value was “high polyreactivity”. For “QVQLVESGGGLVQAGGRLRLTCAASGRNYNGNAMGRYRQAPGTERELVAGIDSDGSTNYADSVKGRFTISRDNAKNTVYLQMNSLKPDDTAGYYCAAVQGYRFYEYYYWGQGTQVTVSS”, the “polyreactivity (PSR sort gate)” value was “low polyreactivity”. With “QVQLVESGGGLVQAGGRLRLTCAASGSIFFYAMGWYRQAPGKERELVAGITTSGGSTYYADSVKGRFTISRDNAKNTVYLQMYSLKPEYTAVYYCAADGSRAGQEGNDYWGQGTQVTVSS” the “polyreactivity (PSR sort gate)” value was “low polyreactivity”. In the case of “QVQLVESGGGLVQAGGRLRLTCAASGSTFFTNAMGWYRQAPGKERELVAAITINDGSTFYADSVKGRFTISRDNAKKTVYLQMNSLKPEDTAVYYCNADGVDLYDFWGQGTQVTVSS”, the “polyreactivity (PSR sort gate)” value was “low polyreactivity”. With “QVQLVESGGGLVQAGGRLRLTCAASGSTFGDYAMGWYRQAPGKERELVAAITYSGGRTYYADSVKGRFTISRDNAKNTGDLQMNRLKPEDTAVYYCAARVRYPSRRGNYDYWGEGTQVTVSS” the “polyreactivity (PSR sort gate)” value was “high polyreactivity”. For “QVQLVESGGGLVQAGGRLRLTCAASGSTFPTYAMGWYRQAPGKERELVAAISTRGGSTYYADSVKGRFTISRDNAKNTVYLQMNSLKPEDTAVYYCATGKSLGRYHYEYWGQGSQVTVSS”, the “polyreactivity (PSR sort gate)” value was “low polyreactivity”. For “QVQLVESGGGLVQAGGRLSLSCAASGSTLWGYAMGWYRQAPGKERELVATINQSAGSTYYADSVKGRFTISRDHAKNSVYLQMHSLKPEVTAVYYCAAEALVQFSYDYWGQGTQVTVSS”, the “polyreactivity (PSR sort gate)” value was “low polyreactivity”. With “QVQLVESGGGLVQAGGRVRLSCAASVSTFKQYSMGWYRQATGKERELVAAITRGGRTNYAYSVKGRFTISRDNAKNTVSLQMNSLKQEDTAVYYCAKLLSGYGRWWYDYWGQGTQVTLSS” the “polyreactivity (PSR sort gate)” value was “high polyreactivity”. With “QVQLVESGGGLVQAGGSDRLSCAASGRTFDRYAMGWYRQAPGKERELVAAISRGGSTNYADSVKGRFTISRDNAKNTVYLQMNSLKPEDTAVYYCAARVSFLHLRRAYDYWGQGSQVTVSS” the “polyreactivity (PSR sort gate)” value was “high polyreactivity”. With “QVQLVESGGGLVQAGGSFRLSCPASGGPVDTYVMGCYRQARGKERELVAVITRGASTYYADSVKGRFTITRDNAKNTVYLQNNRLKPEDTAVYYCAAAFYSPDFYRFWYSFDYWGQGTQVTVSS” the “polyreactivity (PSR sort gate)” value was “low polyreactivity”. For “QVQLVESGGGLVQAGGSHPLSCAASGSIFDLYDMGWYRQAPGKERELVAAISLIGGSTSYADSVKGRFTISRDNAKNSVYLQMNSLKPEDTAVYYCAVDSRPYLRDYWGQGTQVTISS”, the “polyreactivity (PSR sort gate)” value was “low polyreactivity”. In the case of “QVQLVESGGGLVQAGGSHRFSCAASGRIIYTNAMGWYRQAPGKEREFVAVISWGGDTTYYADSVKGRFTISRDNAKNTVYLQMNSLKPEDTAVYYCNAEWGPTYEIYDSWGPGTQVTVSS”, the “polyreactivity (PSR sort gate)” value was “low polyreactivity”. With “QVQLVESGGGLVQAGGSHRLSCAASGFIFGINVMGWYRQAPGKERELVAAISGSGSSTYYADSVKGRFTISRDNAKNTVYLQMNSLKPEDTAVYYCAARSVSTLRFTSRKLRYDYWGQGTQVTVSS” the “polyreactivity (PSR sort gate)” value was “high polyreactivity”. For “QVQLVESGGGLVQAGGSHRLSCAASGFIFYSNAMGWYRQAPGKERELVAAITSGGSTYYADSVKGRFTISRDNAKNTVYLQMNSLKPEDTAVYYCNKARRWRGYDYWGQGTLVTVSS”, the “polyreactivity (PSR sort gate)” value was “high polyreactivity”. For “QVQLVESGGGLVQAGGSHRLSCAASGFTFRHYTMGWYRQAPGKERELVAVITRSGGSTYYADSVKGRFTISRDNAKNTVYLQMNSLKPEDTAVYYCAVGRTYNADGYWGQGTQVTVSS”, the “polyreactivity (PSR sort gate)” value was “high polyreactivity”. In the case of “QVQLVESGGGLVQAGGSHRLSCAASGFTFYIYAMGWYRQAPGKERELVAAINIGGGGTYYADSVKGRFTISRDNAKNTVYLLMHSLKPEDTAVYDCAAVYCYDYYCTEYDYWGQGTQVNVSS”, the “polyreactivity (PSR sort gate)” value was “low polyreactivity”. For “QVQLVESGGGLVQAGGSHRLSCAASGIIFYRNAMGWYRQAPGKERELVATITVSSGSTYYADSVKGRFTISRDNAKNTVYLLMYSLKPEDTAVYYCNARYYYFSVRYKYDFNYWGQGTQVTVSS”, the “polyreactivity (PSR sort gate)” value was “high polyreactivity”. For “QVQLVESGGGLVQAGGSHRLSCAASGITFYGYARGWYRQAPGKERELVAAISGNGGRTYYADSVKGRFTISRDYAKNTVYLQMNSLKPEDTAVYYCNVKVRSRRTGDRYDYWGQGTQVTVSS”, the “polyreactivity (PSR sort gate)” value was “high polyreactivity”. In the case of “QVQLVESGGGLVQAGGSHRLSCAASGLTFTDNAMGRYRQAPGKERELVAAMSRCGGTTYYAASVKGRFTISRDNAKNTVYLQMNSLKPEDTAVYYCNADTYRRLYGNYDYWGQGTQLTVSS”, the “polyreactivity (PSR sort gate)” value was “high polyreactivity”. With “QVQLVESGGGLVQAGGSHRLSCAASGRIFALNTMRWYRQAPGKEREFVAAITTSGGSTYADSVKGRFTISRDNAKNTVYLQMNSLKPEDTAVYYCNKEYYHKWAPTYDYWGQGTEVTVSS” the “polyreactivity (PSR sort gate)” value was “low polyreactivity”. In the case of “QVQLVESGGGLVQAGGSHRLSCAASGRIFDDNALGWYCQAPGKERELVAAITGGGRTNYADSVKGRFTISRDNAKNTVYLQMNSLKPEDTAVSYCAAATYGWVIYIYDYWGQGTQVNVSS”, the “polyreactivity (PSR sort gate)” value was “low polyreactivity”. In the case of “QVQLVESGGGLVQAGGSHRLSCAASGRIFGYNAMGWYRQAPGKEWELVAAISSPGNTYYADSVKGRFTISRDNAKNTVYLQMNSLKPEDTAVYYCARSWLYSQRRYDYWGQGTQVTVSS”, the “polyreactivity (PSR sort gate)” value was “low polyreactivity”. With “QVQLVESGGGLVQAGGSHRLSCAASGRIFNWYAMGWYRHAPGKDRALVARISSGDITSYADSVKGRFSISRDNAKNTVYLQMNILKPEDTAVYYCAARQWFLYDYWGQGTQVTVSS” the “polyreactivity (PSR sort gate)” value was “low polyreactivity”. With “QVQLVESGGGLVQAGGSHRLSCAASGRIFPSYAMGWYRQAPGKQRELVAAISKYGGRTYYADSVKGRFTISRDNAKNTVYLQMNSLKPEDTEVYYCAADGFRYYSWTRFSYYSGYDYWGQGSQVTVSS” the “polyreactivity (PSR sort gate)” value was “high polyreactivity”. For “QVQLVESGGGLVQAGGSHRLSCAASGRIFRPNAMGWYRQAPGKERELVASISQSGGSTYADSVKGRFTISRDNAKNTVYLQMNSLKPEDTAVYYCAKVQGWRYQIYDYWGQGTQVTVSS”, the “polyreactivity (PSR sort gate)” value was “low polyreactivity”. In the case of “QVQLVESGGGLVQAGGSHRLSCAASGRIFRRYAMGWYRQARGQERELDAGITGSGTSTYYADSVKGRFTISRDNAKNTVYLQMNSLKPEDTAVYYCAADRGRGYRYNYWGQGTQVTVSS”, the “polyreactivity (PSR sort gate)” value was “high polyreactivity”. For “QVQLVESGGGLVQAGGSHRLSCAASGRIFYRYVMGWYRQAPGKERELVAAISRGGGTNYADSVKGRFTISRDNAKNTVYLQMNSLKPEDTAVYYCAARGSPGAGYYWGQGTQVTVSS”, the “polyreactivity (PSR sort gate)” value was “high polyreactivity”. With “QVQLVESGGGLVQAGGSHRLSCAASGRSFKYYAMGWYRQAPGKERELVARISPSSGNTYYADSVKGRFTISRDNAKNTVYLQMNSLKPEDTGVYVCATVPHYNGFNYWGQGTQVTVSS” the “polyreactivity (PSR sort gate)” value was “high polyreactivity”. With “QVQLVESGGGLVQAGGSHRLSCAASGRTFPVYAMGWYRHAPGKERELVAAIRGRSVRTYYADSVKGRFTISRDNAQNSVYLQMNSLKPEDTAVYYCAAYYFNPGMDYWGQGTQVTVSS” the “polyreactivity (PSR sort gate)” value was “high polyreactivity”. With “QVQLVESGGGLVQAGGSHRLSCAASGRTFPYYAMGWYRQAPGKERELVAAITRGVRTHYADSVKGRFTISRDNAKNTVYLQMNSLKPEDTAVYYCAREDWGSYSDMDSWGQGTQVTVSS” the “polyreactivity (PSR sort gate)” value was “low polyreactivity”. With “QVQLVESGGGLVQAGGSHRLSCAASGRTFRDNTLGWYRQAPGKERELVAAISRRGGSTYYADSVKGRFTISRDNANNTVYLQMNSLKPVDTADYYCNAVFLTYGSNRGEYWGQGTQVTVSS” the “polyreactivity (PSR sort gate)” value was “high polyreactivity”. In the case of “QVQLVESGGGLVQAGGSHRLSCAASGSIFVVYAMGWYRQAPGKERELVASIRTGGSTNYADSVKGRFTISRDNAKNTVYLQMNSLKPEDTAVYYCAAASWNSNRHYYVARYYYWGQGTQVTVSS”, the “polyreactivity (PSR sort gate)” value was “high polyreactivity”. In the case of “QVQLVESGGGLVQAGGSHRLSCAASGSIFYSYAMGWYRQAPGKERELVAAITYDTGRTYYADSVKGRFTISRDNAKNTVYLQMNSLKPEDTAVYYCAVRPGYYWGYWPRFGYWGQGTQVTVSS”, the “polyreactivity (PSR sort gate)” value was “low polyreactivity”. In the case of “QVQLVESGGGLVQAGGSHRLSCAASGSIYLYYAMGRYRQAPGKERELVAGINRVGSTNYADSVKGRFTISRDNAKNTVYLQMNSLKPEDTAGYYCAKVVNGGYFYYQYPAQYYYWGQGTQVTVSS”, the “polyreactivity (PSR sort gate)” value was “low polyreactivity”. With “QVQLVESGGGLVQAGGSHRLSCAASGSNIRFYAMGWYRQAPGKEREFVAAITSSGGNTYYADSVKGRFTISRDNAKNSVYLHMNSLKPEDTAVYYCAARYYGYGFDYWGQGTQVTVSS” the “polyreactivity (PSR sort gate)” value was “high polyreactivity”. With “QVQLVESGGGLVQAGGSHRLSCAASGSTFGQNAMGCYRQAPGKERELVAAITRRGVSTYYADSVKGRFTISRDNAKNTVYLQMNSLKPEDTAVYYCAKRYHPNSPYDYWGQGTQVTVSS” the “polyreactivity (PSR sort gate)” value was “low polyreactivity”. For “QVQLVESGGGLVQAGGSHRLSCAASGSTFNLNAMGWYRQAPGKERELVAAIDSGGRTNYADSVKGRFTISRDNAKNTVYLQMNSLKPEDTAVYYCADDVYAYPGSWYDYWGQGTQVTVSS”, the “polyreactivity (PSR sort gate)” value was “low polyreactivity”. In the case of “QVQLVESGGGLVQAGGSHRLSCAASGSTFPAYAMGLYRQAPGKERELVAAINTTGGNTYYADSVKGRFTISRDNAKNTVYFQMNSLKPEDTAVYYCAADYKARYSEKFDYWGQGTQVTVSS”, the “polyreactivity (PSR sort gate)” value was “low polyreactivity”.
